{"source": "patent US20230340151A1", "about": "(Pfizer, published 2023)", "binders": {"B1": {"name": "GUCY2C-1608 (bispecific antibody)", "chain 1": "DIQLTQSPSSLSASVGDRVTITCRASESVDYYGSSLLQWYQQKPGKAPKLLIYAASKLASGVPSRFSGSGSGTDFTLTISSLQPEDFATYYCQQTRKAYTFGQGTKLEIKGGGSGGGGEVQLVESGGGLVQPGGSLRLSCAASGFTFSDYYMTWVRQAPGKGLEWVAFIRNQARGYTSDHNPSVKGRFTISRDNAKNSLYLQMNSLRAEDTAVYYCARDRPSYYVLDYWGQGTTVTVSSGCPPCPAPEAAGAPSVFLFPPKPKDTLMISRTPEVTCVVVDVSHEDPEVKFNWYVDGVEVHNAKTKPREEQYNSTYRVVSVLTVLHQDWLNGKEYKCKVSNKALPAPIEKTISKAKGQPREPQVCTLPPSREEMTKNQVSLWCLVKGFYPSDIAVEWESNGQPENNYKTTPPVLDSDGSFFLYSKLTVDKSRWQQGNVFSCSVMHEALHNHYTQKSLSLSPG", "chain 2": "DIQMTQSPSSLSASVGDRVTITCTSSQSLFNVRSQKNYLAWYQQKPGKAPKLLIYWASTRESGVPSRFSGSGSGTDFTLTISSLQPEDFATYYCKQSYDLFTFGGGTKVEIKGGGGSGGGGEVQLVESGGGLVQPGGSLRLSCAASGFTFSSYWMHWVRQAPGKGLEWIGEIKPSNELTNVHEKFKDRFTISVDKAKNSAYLQMNSLRAEDTAVYYCTRTITTTEGYWFFDVWGQGTLVTVSSGCPPCPAPEAAGAPSVFLFPPKPKDTLMISRTPEVTCVVVDVSHEDPEVKFNWYVDGVEVHNAKTKPREEQYNSTYRVVSVLTVLHQDWLNGKEYKCKVSNKALPAPIEKTISKAKGQPREPQVYTLPPCREEMTKNQVSLSCAVKGFYPSDIAVEWESNGQPENNYKTTPPVLDSDGSFFLVSKLTVDKSRWQQGNVFSCSVMHEALHNHYTQKSLSLSPG", "notes": "also called GUCY2c CD3 bispecific"}}, "key": {"[1]": {"molecular_target": "T1, Cynomolgus GUCY2C-ECD Cleaved (cynomolgus, UniProt P25092 24-430 (human entry))", "T1 construct": "also called CyGUCY2C", "T1 chain": "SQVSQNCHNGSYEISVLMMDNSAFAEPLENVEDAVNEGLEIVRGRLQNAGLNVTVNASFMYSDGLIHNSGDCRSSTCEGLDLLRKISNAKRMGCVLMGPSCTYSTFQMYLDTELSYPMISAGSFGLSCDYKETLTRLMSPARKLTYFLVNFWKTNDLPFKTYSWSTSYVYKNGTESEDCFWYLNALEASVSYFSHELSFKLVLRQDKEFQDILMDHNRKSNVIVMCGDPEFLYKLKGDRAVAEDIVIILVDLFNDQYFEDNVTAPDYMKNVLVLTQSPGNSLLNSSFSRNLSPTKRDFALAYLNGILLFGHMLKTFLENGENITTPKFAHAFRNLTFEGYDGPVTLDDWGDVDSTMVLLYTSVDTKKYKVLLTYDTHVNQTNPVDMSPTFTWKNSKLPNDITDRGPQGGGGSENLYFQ", "experiment": "SPR, GUCY2c directly immobilized, 37 C"}, "[2]": {"molecular_target": "T2, Human CD3 on naive human T cells (human, UniProt P07766 23-207)", "T2 construct": "whole, on cells; on cells it stands in the CD3/TCR complex", "T2 sequence (P07766 23-207)": "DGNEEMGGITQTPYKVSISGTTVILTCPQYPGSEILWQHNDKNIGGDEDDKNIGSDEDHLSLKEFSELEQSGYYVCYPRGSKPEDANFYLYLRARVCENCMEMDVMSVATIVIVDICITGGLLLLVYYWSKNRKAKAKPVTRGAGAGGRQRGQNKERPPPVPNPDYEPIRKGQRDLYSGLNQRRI", "experiment": "flow cytometry titration on naive human T cells (PE-A Geo Mean against concentration in nM)"}, "[3]": {"molecular_target": "T3, Human GUCY2c on tumor cells (T84, HT55) (human, UniProt P25092 24-1073)", "T3 sequence (P25092 24-1073 limits assumed)": "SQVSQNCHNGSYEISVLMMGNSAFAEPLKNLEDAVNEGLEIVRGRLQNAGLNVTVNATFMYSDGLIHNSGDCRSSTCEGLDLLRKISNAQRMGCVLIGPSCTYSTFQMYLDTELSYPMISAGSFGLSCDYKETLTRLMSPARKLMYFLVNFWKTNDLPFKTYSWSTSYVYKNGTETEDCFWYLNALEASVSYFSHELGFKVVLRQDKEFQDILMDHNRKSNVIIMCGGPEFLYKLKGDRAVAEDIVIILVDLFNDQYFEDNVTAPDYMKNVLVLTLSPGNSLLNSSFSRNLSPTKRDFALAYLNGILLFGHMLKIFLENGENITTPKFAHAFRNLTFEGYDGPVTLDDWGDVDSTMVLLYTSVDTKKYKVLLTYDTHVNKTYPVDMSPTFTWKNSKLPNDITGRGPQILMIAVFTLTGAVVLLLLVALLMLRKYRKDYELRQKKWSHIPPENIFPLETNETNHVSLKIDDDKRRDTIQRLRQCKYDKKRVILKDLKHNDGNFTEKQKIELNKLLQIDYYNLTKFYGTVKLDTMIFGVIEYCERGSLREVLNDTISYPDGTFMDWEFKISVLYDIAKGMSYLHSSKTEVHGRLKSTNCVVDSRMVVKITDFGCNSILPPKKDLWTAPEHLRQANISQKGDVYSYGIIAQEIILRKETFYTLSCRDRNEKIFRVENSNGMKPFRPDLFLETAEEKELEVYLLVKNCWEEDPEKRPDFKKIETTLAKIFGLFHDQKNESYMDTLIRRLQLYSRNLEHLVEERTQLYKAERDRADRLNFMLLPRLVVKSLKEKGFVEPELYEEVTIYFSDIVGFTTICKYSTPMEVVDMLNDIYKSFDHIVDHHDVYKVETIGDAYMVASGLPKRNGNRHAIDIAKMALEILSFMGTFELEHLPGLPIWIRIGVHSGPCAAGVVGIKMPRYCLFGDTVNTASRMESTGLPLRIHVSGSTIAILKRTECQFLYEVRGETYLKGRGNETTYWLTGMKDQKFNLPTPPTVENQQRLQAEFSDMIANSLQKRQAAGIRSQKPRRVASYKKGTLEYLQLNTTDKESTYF", "experiment": "cell-based or functional assay"}, "[4]": {"molecular_target": "T4, Human CD3 epsilon-delta (human)", "T4 construct": "Single-chain epsilon-linker-delta with His6; also called huCD3", "T4 chain": "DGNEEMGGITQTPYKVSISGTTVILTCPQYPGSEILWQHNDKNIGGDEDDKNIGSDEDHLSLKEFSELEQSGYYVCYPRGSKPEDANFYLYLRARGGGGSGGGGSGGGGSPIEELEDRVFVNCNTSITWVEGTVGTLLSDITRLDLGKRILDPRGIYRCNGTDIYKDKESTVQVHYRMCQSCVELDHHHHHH", "experiment": "SPR, CD3 captured by anti-His, printed 25 C (Table 33C)"}, "[5]": {"molecular_target": "T5, Cynomolgus CD3 epsilon-delta (cynomolgus)", "T5 chain": "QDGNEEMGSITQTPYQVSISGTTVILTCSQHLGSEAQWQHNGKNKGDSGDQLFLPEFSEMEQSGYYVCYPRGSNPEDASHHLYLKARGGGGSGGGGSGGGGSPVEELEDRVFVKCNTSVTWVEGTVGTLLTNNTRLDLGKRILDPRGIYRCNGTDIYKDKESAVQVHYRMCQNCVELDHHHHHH", "experiment": "SPR, CD3 captured by anti-His, 25 C"}, "[6]": {"molecular_target": "T3, Human GUCY2c on tumor cells (T84, HT55)", "experiment": "cell-based or functional assay", "remark": "listed apart in the source"}, "[7]": {"molecular_target": "T5, Cynomolgus CD3 epsilon-delta", "experiment": "SPR, CD3 captured by anti-His, printed 25 C (Table 33F)"}, "[8]": {"molecular_target": "T6, Human GUCY2C full length (SEQ ID NO: 224), recombinant protein (human, UniProt P25092 24-430, limits assumed)", "T6 construct": "also called huGUCY2C; biotinylated human GUCY2c", "T6 sequence (P25092 24-430 F281L limits assumed)": "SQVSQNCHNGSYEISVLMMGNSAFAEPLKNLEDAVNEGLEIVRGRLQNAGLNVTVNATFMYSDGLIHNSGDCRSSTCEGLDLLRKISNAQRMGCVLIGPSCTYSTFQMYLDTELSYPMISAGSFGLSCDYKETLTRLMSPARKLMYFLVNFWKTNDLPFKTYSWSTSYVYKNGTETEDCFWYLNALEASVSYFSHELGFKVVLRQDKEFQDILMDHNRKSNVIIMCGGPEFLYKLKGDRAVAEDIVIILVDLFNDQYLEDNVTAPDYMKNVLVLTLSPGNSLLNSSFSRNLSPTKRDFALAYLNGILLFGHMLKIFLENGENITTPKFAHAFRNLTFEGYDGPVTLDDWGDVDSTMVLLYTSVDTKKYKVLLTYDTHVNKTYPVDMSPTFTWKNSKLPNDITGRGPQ", "experiment": "SPR, GUCY2c directly immobilized, 37 C"}, "[9]": {"molecular_target": "T1, Cynomolgus GUCY2C-ECD Cleaved", "experiment": "direct DELFIA, RT"}, "[10]": {"molecular_target": "T4, Human CD3 epsilon-delta", "experiment": "SPR, CD3 captured by anti-His, 25 C"}, "[11]": {"molecular_target": "T3, Human GUCY2c on tumor cells (T84, HT55)", "experiment": "flow cytometry titration on T84 tumor cells (PE-A Geo Mean against Ab in nM)"}, "[12]": {"molecular_target": "T7, GUCY2C_ECD Peptide 30 (human)", "T7 peptide": "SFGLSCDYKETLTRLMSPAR", "experiment": "peptide DELFIA ELISA;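 note: epitope mapping using overlapping 20-mer GUCY2C peptides covering residues 1-440, extracellular into transmembrane domain, coated at 20 µg/ml as target antigen and probed with antibodies or GUCY2C-CD3 bispecifics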"}, "[13]": {"molecular_target": "T8, GUCY2C_ECD Peptide 28 (human)", "T8 peptide": "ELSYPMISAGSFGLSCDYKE", "experiment": "peptide DELFIA ELISA"}, "[14]": {"molecular_target": "T9, GUCY2C_ECD Peptide 50 (human)", "T9 peptide": "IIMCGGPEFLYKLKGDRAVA", "experiment": "peptide DELFIA ELISA"}, "[15]": {"molecular_target": "T10, GUCY2C_ECD Peptide 9 (human)", "T10 peptide": "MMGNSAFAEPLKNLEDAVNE", "experiment": "peptide DELFIA ELISA"}, "[16]": {"molecular_target": "T11, GUCY2C_ECD Peptide 48 (human)", "T11 peptide": "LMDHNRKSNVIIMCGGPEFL", "experiment": "peptide DELFIA ELISA"}, "[17]": {"molecular_target": "T12, GUCY2C_ECD Peptide 67 (human)", "T12 peptide": "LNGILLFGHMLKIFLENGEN", "experiment": "peptide DELFIA ELISA"}, "[18]": {"molecular_target": "T13, GUCY2C_ECD Peptide 18 (human)", "T13 peptide": "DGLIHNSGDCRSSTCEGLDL", "experiment": "peptide DELFIA ELISA"}, "[19]": {"molecular_target": "T14, GUCY2C_ECD Peptide 66 (human)", "T14 peptide": "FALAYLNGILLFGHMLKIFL", "experiment": "peptide DELFIA ELISA"}, "[20]": {"molecular_target": "T15, GUCY2C_ECD Peptide 86 (human)", "T15 peptide": "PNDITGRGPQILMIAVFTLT", "experiment": "peptide DELFIA ELISA"}, "[21]": {"molecular_target": "T16, GUCY2C_ECD Peptide 64 (human)", "T16 peptide": "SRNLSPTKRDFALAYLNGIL", "experiment": "peptide DELFIA ELISA"}, "[22]": {"molecular_target": "T1, Cynomolgus GUCY2C-ECD Cleaved", "experiment": "direct DELFIA, 60 C"}, "[23]": {"molecular_target": "T4, Human CD3 epsilon-delta", "experiment": "SPR, recombinant human CD3"}}, "note": "Like-named read-outs stand apart in the source and are kept apart here.", "data": [{"binder": "B1", "values": [{"measurement": "Kd", "setting": "[1]", "value": 8.68, "unit": "nM"}, {"measurement": "koff", "setting": "[1]", "value": 0.00166, "unit": "s⁻¹"}, {"measurement": "kon", "setting": "[1]", "value": 191000, "unit": "M⁻¹ s⁻¹"}, {"measurement": "Kd", "setting": "[2]", "value": 35.4, "unit": "nM"}, {"measurement": "T84 tumor cell EC50 (T cell cytotoxicity, E:T 5:1)", "setting": "[3]", "value": 0.19, "unit": "nM"}, {"measurement": "Kd", "setting": "[4]", "value": 124, "unit": "nM"}, {"measurement": "koff", "setting": "[4]", "value": 0.09, "unit": "s⁻¹"}, {"measurement": "kon", "setting": "[4]", "value": 744000, "unit": "M⁻¹ s⁻¹"}, {"measurement": "Kd", "setting": "[5]", "value": 24.1, "unit": "nM"}, {"measurement": "koff", "setting": "[5]", "value": 0.00916, "unit": "s⁻¹"}, {"measurement": "kon", "setting": "[5]", "value": 381000, "unit": "M⁻¹ s⁻¹"}, {"measurement": "T84 tumor cell EC50 (T cell cytotoxicity, E:T 5:1)", "setting": "[6]", "value": 0.19, "unit": "nM"}, {"measurement": "Kd", "setting": "[7]", "value": 130, "unit": "nM"}, {"measurement": "koff", "setting": "[7]", "value": 0.0665, "unit": "s⁻¹"}, {"measurement": "kon", "setting": "[7]", "value": 514000, "unit": "M⁻¹ s⁻¹"}, {"measurement": "Kd", "setting": "[8]", "value": 13.5, "unit": "nM"}, {"measurement": "koff", "setting": "[8]", "value": 0.00217, "unit": "s⁻¹"}, {"measurement": "kon", "setting": "[8]", "value": 161000, "unit": "M⁻¹ s⁻¹"}, {"measurement": "EC50", "setting": "[9]", "value": 9.84, "unit": "nM"}, {"measurement": "Kd", "setting": "[10]", "value": 24, "unit": "nM"}, {"measurement": "koff", "setting": "[10]", "value": 0.00999, "unit": "s⁻¹"}, {"measurement": "kon", "setting": "[10]", "value": 418000, "unit": "M⁻¹ s⁻¹"}, {"measurement": "Kd", "setting": "[11]", "value": 0.62, "unit": "nM"}, {"measurement": "DELFIA TRF", "setting": "[12]", "value": 125}, {"measurement": "DELFIA TRF", "setting": "[13]", "value": 96.8}, {"measurement": "DELFIA TRF", "setting": "[14]", "value": 161}, {"measurement": "DELFIA TRF", "setting": "[15]", "value": 145}, {"measurement": "DELFIA TRF", "setting": "[16]", "value": 148}, {"measurement": "DELFIA TRF", "setting": "[17]", "value": 93.2}, {"measurement": "DELFIA TRF", "setting": "[18]", "value": 126}, {"measurement": "DELFIA TRF", "setting": "[19]", "value": 114}, {"measurement": "DELFIA TRF", "setting": "[20]", "value": 110}, {"measurement": "DELFIA TRF", "setting": "[21]", "value": 116}, {"measurement": "EC50", "setting": "[22]", "value": 49.9, "unit": "nM"}, {"measurement": "Kd", "setting": "[23]", "value": 128, "unit": "nM"}]}]}
